In data set [1] the target is T1, Interleukin-6 (IL-6) ((aptamer stated to be specific to mouse IL-6)) (UniProt P08505).
T1 sequence: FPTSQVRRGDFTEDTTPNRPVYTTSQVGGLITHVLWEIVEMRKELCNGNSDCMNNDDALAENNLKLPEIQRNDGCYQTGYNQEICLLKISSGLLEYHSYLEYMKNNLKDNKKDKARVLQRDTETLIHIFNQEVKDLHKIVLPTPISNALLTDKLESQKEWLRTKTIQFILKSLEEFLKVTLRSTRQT
Nature of the data set: GFET (graphene field-effect transistor), Hill-Langmuir fit, n = 0.3. To be noted: pH ~3.64, 2 mM MgCl2; 5' amine coupled to 1-pyrenebutyric acid NHS ester (5' pyrene); 0.01x PBS with 2 mM MgCl2, pH ~7.4 (or adjusted to ~3.64), 10 min exposure per concentration, temperature not stated; aptamer immobilized on graphene.

In data set [2] the target is T1, Interleukin-6 (IL-6) ((aptamer stated to be specific to mouse IL-6)). Nature of the data set: manufacturer value. The conditions noted are these: 5' amine; 0.01x PBS with 2 mM MgCl2, pH ~7.4 (or adjusted to ~3.64), 10 min exposure per concentration, temperature not stated; aptamer immobilized on graphene; cited from earlier work.

pKd: −log10 of the molar value.

What is called pKd is −log10 of the Kd, conventionally taken in molar units. Turning to “IL-6 aptamer ATW0077 (Base Pair Biotechnologies), pyrene-tagged (PTDA)”, the negative logarithm of the Kd (pKd) in data set [1] was 8.47.
For the substance “IL-6 aptamer ATW0077, as supplied (manufacturer Kd)”, the pKd in data set [2] is 8.27.

Source of the values: publication PMC7918451.
